“And” between values parts separate entries of the source, which are not always exact repeats. Equal entries are not always repeated. Values belong to the substance of their own block, whether it stands above or below them.
Columns and labels:
[1] = biological target: MAP1LC3B (human) (UniProt Q9GZQ8); assay: fluorescence polarisation; displacement of a FITC-labelled probe peptide (5 nM in the measurement) from the protein domain (1-2 fold over the probe's KD) by a dilution series of unlabelled peptide; room temperature; 50 mM sodium phosphate pH 7.4; KD calculated from the displacement curve; for KPNA4 ARM one probe for each pocket
[2] = biological target: MAP1LC3A (human); assay: as above
[3] = biological target: GABARAPL2 (human) (UniProt P60520); assay: fluorescence polarisation
[4] = biological target: Clathrin N-terminal domain (NTD) (human) (UniProt Q00610); assay: ITC; iTC200; peptide titrated against the protein domain in approximately 10-fold excess, 16 injections; 50 mM sodium phosphate buffer pH 7.4, 1 mM DTT; constants of single runs and their average
[5] = biological target: Clathrin N-terminal domain (NTD) (human) (UniProt Q00610); assay: fluorescence polarisation
[6] = biological target: Clathrin N-terminal domain (NTD) (human) (UniProt Q00610); assay: fluorescence polarisation; displacement of a FITC-labelled probe peptide (5 nM in the measurement) from the protein domain (1-2 fold over the probe's KD) by a dilution series of unlabelled peptide; room temperature; 50 mM sodium phosphate pH 7.4; KD calculated from the displacement curve; for KPNA4 ARM one probe for each pocket
[7] = biological target: Clathrin N-terminal domain (NTD) (human) (UniProt Q00610); assay: as above; remark: listed apart in the source
[8] = biological target: Clathrin N-terminal domain (NTD) (human) (UniProt Q00610); assay: ITC; peptide titrated against protein domain in about 10-fold excess, 16 injections; 50 mM sodium phosphate pH 7.4, 1 mM DTT
[9] = biological target: KPNA4 ARM ARM domain (UniProt O00629); assay: FP displacement, major-pocket FITC probe; details: reference: unphosphorylated peptide
[10] = biological target: KPNA4 ARM ARM domain (UniProt O00629); assay: FP displacement, minor-pocket FITC probe; details: reference: unphosphorylated peptide
[11] = biological target: GGA1 VHS domain (human) (UniProt Q9UJY5); assay: ITC; iTC200; peptide titrated against the protein domain in approximately 10-fold excess, 16 injections; 50 mM sodium phosphate buffer pH 7.4, 1 mM DTT; constants of single runs and their average
[12] = biological target: MAP1LC3B ATG8 (human); assay: as above
[13] = biological target: GABARAPL2 (human) (UniProt P60520); assay: fluorescence polarisation; displacement of a FITC-labelled probe peptide (5 nM in the measurement) from the protein domain (1-2 fold over the probe's KD) by a dilution series of unlabelled peptide; room temperature; 50 mM sodium phosphate pH 7.4; KD calculated from the displacement curve; for KPNA4 ARM one probe for each pocket
[14] = biological target: 14‐3‐3 theta (UniProt P27348); assay: FP displacement of FITC probe peptide; details: reference: unphosphorylated peptide; sites S375

Sequence of GGA1 VHS domain (human) (Q9UJY5 17-147): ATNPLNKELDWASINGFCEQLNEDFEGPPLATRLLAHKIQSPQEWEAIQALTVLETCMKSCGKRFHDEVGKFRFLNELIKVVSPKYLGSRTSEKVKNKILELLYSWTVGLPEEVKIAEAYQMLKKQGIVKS
Sequence of Clathrin N-terminal domain (NTD) (human) (Q00610 1-364): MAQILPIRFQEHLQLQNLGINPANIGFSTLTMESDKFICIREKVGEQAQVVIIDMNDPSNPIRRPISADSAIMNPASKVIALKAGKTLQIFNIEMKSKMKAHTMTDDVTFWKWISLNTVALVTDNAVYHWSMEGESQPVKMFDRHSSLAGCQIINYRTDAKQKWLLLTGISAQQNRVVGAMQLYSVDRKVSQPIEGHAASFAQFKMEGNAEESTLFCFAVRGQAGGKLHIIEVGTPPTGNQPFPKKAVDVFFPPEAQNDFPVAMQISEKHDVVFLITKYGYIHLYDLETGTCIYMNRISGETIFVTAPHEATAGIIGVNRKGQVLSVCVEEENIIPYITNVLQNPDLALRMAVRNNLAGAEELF
Sequence of GABARAPL2 (human) (P60520 whole entry, the tested form may be a part): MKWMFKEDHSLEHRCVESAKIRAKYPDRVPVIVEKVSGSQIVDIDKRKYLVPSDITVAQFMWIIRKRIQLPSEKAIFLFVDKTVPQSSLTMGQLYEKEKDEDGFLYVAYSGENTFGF

Substance: HURP 832-846 peptide, phosphomimetic (S839 to glutamate) (from UniProt Q15398 832-846)
stoichiometry N [4]: 0.552 and 0.557 and 0.458

Substance: HURP_(832–846), wild‐type (from UniProt Q15398 832-846) (peptide)
Kd [6]: 134 µM | Kd [7]: 150 µM | Kd [8]: 250 µM

Substance: RANBP3 114-129 (from UniProt Q9H6Z4) pS125 peptide (p+6)
KD ([9]; sites S125): same; reference 0.15 ± 0.01 | KD ([10]; sites S125): stronger; reference 68 ± 4

Substance: RNF11 6-21 peptide, phosphorylated (from UniProt Q9Y3C5 6-21)
stoichiometry N [11]: 0.722 and 0.731

Substance: RNF11 6-21 peptide, wild-type (from UniProt Q9Y3C5 6-21)
stoichiometry N [11]: 0.8

Substance: TBK1_(164–179), phosphomimetic (E) (from UniProt Q9UHD2 164-179) (peptide)
Kd [1]: 2.1 µM | Kd [13]: 12.4 µM

Substance: TBK1_(164–179), phosphorylated (pS) (from UniProt Q9UHD2 164-179) (peptide)
Kd [13]: 2.8 µM

Substance: TBK1_(164–179), wild‐type (from UniProt Q9UHD2 164-179) (peptide)
Kd [1]: 10.5 µM | Kd [13]: 19 µM

Substance: TOM1 366-382 (from UniProt O60784) pS375 peptide
binding against the reference [14]: gained

Substance: TPD52L2_(91–106), phosphomimetic (E) (from UniProt O43399 91-106) (peptide)
Kd [1]: 225 µM | Kd [2]: 78 µM

Substance: pS839 HURP_(832–846) (from UniProt Q15398 832-846) (peptide)
Kd [6]: < 3 µM | Kd [8]: 5 µM

Next, values leading:

Kd [1]: 4.6 µM | Kd [2]: 3.1 µM | Kd [3]: 1.8 µM
Substance: ATG4C_(444–458), phosphomimetic (E) (from UniProt Q96DT6 444-458) (peptide)

Kd [1]: 7.1 µM | Kd [2]: 5.2 µM | Kd [3]: 0.8 µM
Substance: ATG4C_(444–458), wild‐type (from UniProt Q96DT6 444-458) (peptide)

Kd [5]: 23 µM
Substance: HURP_(832–846), phosphomimetic (E) (from UniProt Q15398 832-846) (peptide)

stoichiometry N [11]: 0.97 and 0.905
Substance: RNF11 6-21 peptide, phosphomimetic (from UniProt Q9Y3C5 6-21)

KD ([9]; sites S266): weaker; reference 0.24 ± 0.04 | KD ([10]; sites S266): weaker; reference 14.0 ± 0.7
Substance: SQSTM1 258-272 (from UniProt Q13501) phosphorylated peptide

stoichiometry N [12]: 1.09 and 1.17 and 0.932
Substance: TBK1 164-179 peptide, phosphorylated (from UniProt Q9UHD2 164-179)

— publication PMC10333884, “Large‐scale phosphomimetic screening identifies phospho‐modulated motif‐based protein interactions” (Molecular Systems Biology, 2023)
